Experimental data: patent US20220332844A1 (ORIONIS BIOSCIENCES, published 2022)
Positions count from the first letter of the chain named. Names and notes keep the numbering of the source.

T1: recombinant FAP protein (BioLegend), biotinylated (Homo sapiens (Human), UniProt Q12884 26-760, Biotinylated (sites not given) for loading on streptavidin sensors. Any vendor tag is not stated in the passages shown.)
T1 construct: Loaded on streptavidin sensors for BLI; also called biotinylated FAP
T1 sequence: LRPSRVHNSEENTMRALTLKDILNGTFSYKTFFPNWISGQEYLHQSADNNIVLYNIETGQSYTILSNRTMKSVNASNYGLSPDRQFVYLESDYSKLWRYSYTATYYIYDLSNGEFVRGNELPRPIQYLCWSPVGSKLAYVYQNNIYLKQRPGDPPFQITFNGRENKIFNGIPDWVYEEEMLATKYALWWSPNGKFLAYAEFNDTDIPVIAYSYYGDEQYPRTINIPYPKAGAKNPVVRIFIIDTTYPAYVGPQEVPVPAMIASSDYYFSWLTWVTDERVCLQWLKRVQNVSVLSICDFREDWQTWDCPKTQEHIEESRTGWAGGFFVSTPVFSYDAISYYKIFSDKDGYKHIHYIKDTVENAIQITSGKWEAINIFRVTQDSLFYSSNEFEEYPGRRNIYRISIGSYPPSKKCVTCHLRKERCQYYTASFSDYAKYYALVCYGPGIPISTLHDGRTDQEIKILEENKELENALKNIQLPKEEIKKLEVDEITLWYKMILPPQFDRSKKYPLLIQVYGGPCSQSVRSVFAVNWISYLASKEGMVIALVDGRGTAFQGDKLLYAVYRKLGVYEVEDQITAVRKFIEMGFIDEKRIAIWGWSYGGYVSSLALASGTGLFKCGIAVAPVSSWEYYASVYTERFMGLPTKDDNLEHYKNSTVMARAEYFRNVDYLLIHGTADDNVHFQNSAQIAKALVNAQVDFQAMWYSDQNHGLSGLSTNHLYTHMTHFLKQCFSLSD

T2: mouse FAP on transiently transfected HEK293T cells (pMET7 FLAG-mFAP) (mouse, UniProt P97321 1-761)
T2 construct: whole, on cells; not shown: FLAG tag of the plasmid pMET7 FLAG-mFAP
T2 sequence (looked up): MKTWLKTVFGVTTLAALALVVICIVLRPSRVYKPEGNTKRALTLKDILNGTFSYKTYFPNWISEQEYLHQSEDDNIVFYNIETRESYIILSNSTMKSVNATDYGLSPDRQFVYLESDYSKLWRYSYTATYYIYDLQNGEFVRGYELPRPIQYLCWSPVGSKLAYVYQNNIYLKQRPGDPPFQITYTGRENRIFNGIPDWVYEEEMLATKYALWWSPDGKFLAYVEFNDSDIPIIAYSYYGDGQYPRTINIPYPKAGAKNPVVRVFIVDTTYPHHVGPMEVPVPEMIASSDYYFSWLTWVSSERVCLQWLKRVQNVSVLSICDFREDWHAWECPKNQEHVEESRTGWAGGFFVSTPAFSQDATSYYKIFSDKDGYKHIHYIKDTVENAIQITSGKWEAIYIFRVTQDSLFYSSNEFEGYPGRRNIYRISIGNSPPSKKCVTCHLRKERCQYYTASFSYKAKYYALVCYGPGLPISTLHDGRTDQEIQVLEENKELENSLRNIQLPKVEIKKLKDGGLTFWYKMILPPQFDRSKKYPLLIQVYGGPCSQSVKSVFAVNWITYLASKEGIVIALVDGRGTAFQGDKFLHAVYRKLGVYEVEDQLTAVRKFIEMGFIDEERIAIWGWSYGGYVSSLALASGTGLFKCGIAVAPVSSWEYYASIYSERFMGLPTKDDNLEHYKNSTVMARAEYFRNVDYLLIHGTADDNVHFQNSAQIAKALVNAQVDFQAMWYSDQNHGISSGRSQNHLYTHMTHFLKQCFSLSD

B1: P-1901: 2PE14 (VHH)
VHH: QVQLQESGGGLVQPGGSLRLSCAASGSTFSINAVAWYRQAPGKRRELVAGISGGGVTNYPDSVKGRFTISRDNAKNTVYLQMSSLKPEDTAVYYCNLWPPRASPGGRVYWGQGTQVTVSS
notes: also called pET28 PelB-2PE14
B2: P-1902: 2PE14_opt1 (Q1D_Q5V_A74S_K83R_Q108L) (VHH)
VHH: B1 VHH with Q1D, Q5V, A74S, K86R, Q115L
notes: also called pET28 PelB-2PE14_opt1
B3: P-1903: 2PE14_opt2 (Q1D_Q5V_P60A_A74S_K83R_Q108L) (VHH)
VHH: B1 VHH with Q1D, Q5V, P60A, A74S, K86R, Q115L
notes: also called pET28 PelB-2PE14_opt2 (idem + P60A)
B4: P-1904: 2PE14_opt3 (Q1D_Q5V_A74S_S82N_K83R_Q108L) (VHH)
VHH: B1 VHH with Q1D, Q5V, A74S, S83N, K86R, Q115L
notes: also called pET28 PelB-2PE14_opt3 (idem + S82N)
B5: P-1905: 2PE14_opt4 (Q1D_Q5V_P60A_A74S_S82N_K83R_Q108L) (VHH)
VHH: B1 VHH with Q1D, Q5V, P60A, A74S, S83N, K86R, Q115L
B6: P-1906: 2PE14_N32A (VHH)
VHH: B1 VHH with N32A
notes: also called pET28 PelB-2PE14_N32A
B7: P-1907: 2PE14_N32D (VHH)
VHH: B1 VHH with N32D
notes: also called pET28 PelB-2PE14_N32D
B8: P-1908: 2PE14_N32E (VHH)
VHH: B1 VHH with N32E
notes: also called pET28 PelB-2PE14_N32E
B9: P-1909: 2PE14_N32F (VHH)
VHH: B1 VHH with N32F
notes: also called pET28 PelB-2PE14_N32F
B10: P-1910: 2PE14_N32G (VHH)
VHH: B1 VHH with N32G
notes: also called pET28 PelB-2PE14_N32G
B11: P-1911: 2PE14_N32H (VHH)
VHH: B1 VHH with N32H
notes: also called pET28 PelB-2PE14_N32H
B12: P-1912: 2PE14_N32I (VHH)
VHH: B1 VHH with N32I
notes: also called pET28 PelB-2PE14_N32I
B13: P-1913: 2PE14_N32K (VHH)
VHH: B1 VHH with N32K
notes: also called pET28 PelB-2PE14_N32K
B14: P-1914: 2PE14_N32L (VHH)
VHH: B1 VHH with N32L
notes: also called pET28 PelB-2PE14_N32L
B15: P-1915: 2PE14_N32P (VHH)
VHH: B1 VHH with N32P
notes: also called pET28 PelB-2PE14_N32P
B16: P-1916: 2PE14_N32Q (VHH)
VHH: B1 VHH with N32Q
notes: also called pET28 PelB-2PE14_N32Q
B17: P-1917: 2PE14_N32R (VHH)
VHH: B1 VHH with N32R
notes: also called pET28 PelB-2PE14_N32R
B18: P-1918: 2PE14_N32S (VHH)
VHH: B1 VHH with N32S
notes: also called pET28 PelB-2PE14_N32S
B19: P-1919: 2PE14_N32T (VHH)
VHH: B1 VHH with N32T
notes: also called pET28 PelB-2PE14_N32T
B20: P-1920: 2PE14_N32V (VHH)
VHH: B1 VHH with N32V
notes: also called pET28 PelB-2PE14_N32V
B21: P-1921: 2PE14_N32W (VHH)
VHH: B1 VHH with N32W
notes: also called pET28 PelB-2PE14_N32W
B22: P-1922: 2PE14_N32Y (VHH)
VHH: B1 VHH with N32Y
notes: also called pET28 PelB-2PE14_N32Y
B23: P-1923: 3PE42 (VHH)
VHH: B1 VHH with G16E, A24V, F29S, I31M, V34M, V56A, R107G
notes: also called pET28 PelB-3PE42
B24: P-1924: 3PE42_M31A (VHH)
VHH: B1 VHH with G16E, A24V, F29S, I31A, V34M, V56A, R107G
notes: also called pET28 PelB-3PE42_M42A
B25: P-1925: 3PE42_M31D (VHH)
VHH: B1 VHH with G16E, A24V, F29S, I31D, V34M, V56A, R107G
notes: also called pET28 PelB-3PE42_M42D
B26: P-1926: 3PE42_M31E (VHH)
VHH: B1 VHH with G16E, A24V, F29S, I31E, V34M, V56A, R107G
notes: also called pET28 PelB-3PE42_M42E
B27: P-1927: 3PE42_M31F (VHH)
VHH: B1 VHH with G16E, A24V, F29S, I31F, V34M, V56A, R107G
notes: also called pET28 PelB-3PE42_M42F
B28: P-1928: 3PE42_M31G (VHH)
VHH: B1 VHH with G16E, A24V, F29S, I31G, V34M, V56A, R107G
notes: also called pET28 PelB-3PE42_M42G
B29: P-1929: 3PE42_M31H (VHH)
VHH: B1 VHH with G16E, A24V, F29S, I31H, V34M, V56A, R107G
notes: also called pET28 PelB-3PE42_M42H
B30: P-1930: 3PE42_M31I (VHH)
VHH: B1 VHH with G16E, A24V, F29S, V34M, V56A, R107G
notes: also called pET28 PelB-3PE42_M42I
B31: P-1931: 3PE42_M31K (VHH)
VHH: B1 VHH with G16E, A24V, F29S, I31K, V34M, V56A, R107G
notes: also called pET28 PelB-3PE42_M42K
B32: P-1932: 3PE42_M31L (VHH)
VHH: B1 VHH with G16E, A24V, F29S, I31L, V34M, V56A, R107G
notes: also called pET28 PelB-3PE42_M42L
B33: P-1933: 3PE42_M31N (VHH)
VHH: B1 VHH with G16E, A24V, F29S, I31N, V34M, V56A, R107G
notes: also called pET28 PelB-3PE42_M42N
B34: P-1934: 3PE42_M31P (VHH)
VHH: B1 VHH with G16E, A24V, F29S, I31P, V34M, V56A, R107G
notes: also called pET28 PelB-3PE42_M42P
B35: P-1935: 3PE42_M31Q (VHH)
VHH: B1 VHH with G16E, A24V, F29S, I31Q, V34M, V56A, R107G
notes: also called pET28 PelB-3PE42_M42Q
B36: P-1936: 3PE42_M31R (VHH)
VHH: B1 VHH with G16E, A24V, F29S, I31R, V34M, V56A, R107G
notes: also called pET28 PelB-3PE42_M42R
B37: P-1937: 3PE42_M31S (VHH)
VHH: B1 VHH with G16E, A24V, F29S, I31S, V34M, V56A, R107G
notes: also called pET28 PelB-3PE42_M42S
B38: P-1938: 3PE42_M31T (VHH)
VHH: B1 VHH with G16E, A24V, F29S, I31T, V34M, V56A, R107G
notes: also called pET28 PelB-3PE42_M42T
B39: P-1939: 3PE42_M31V (VHH)
VHH: B1 VHH with G16E, A24V, F29S, I31V, V34M, V56A, R107G
notes: also called pET28 PelB-3PE42_M42V
B40: P-1940: 3PE42_M31W (VHH)
VHH: B1 VHH with G16E, A24V, F29S, I31W, V34M, V56A, R107G
notes: also called pET28 PelB-3PE42_M42W
B41: P-1941: 3PE42_M31Y (VHH)
VHH: B1 VHH with G16E, A24V, F29S, I31Y, V34M, V56A, R107G
notes: also called pET28 PelB-3PE42_M42Y
B42: 2PE14 (VHH)
VHH: B1 VHH
B43: 2PE17 (VHH)
VHH: B1 VHH with P14S
B44: 2PE36 (VHH)
VHH: B1 VHH with G105D
B45: 2PE40 (VHH)
VHH: B1 VHH with G26E, T77I
B46: 2PE42 (VHH)
VHH: B1 VHH with P14A, K64R, G105D
B47: 2PE44 (VHH)
VHH: B1 VHH with I31V, K86I

Target: T1, recombinant FAP protein (BioLegend), …
Assay: BLI (Octet RED96), biotinylated FAP on streptavidin sensors

Row | Binder | Kd
1 | B1 | 0.667 nM
2 | B2 | 0.0951 nM
3 | B3 | 2.26 nM
4 | B4 | 0.653 nM
5 | B5 | 3.76 nM
6 | B6 | 3.56 nM
7 | B7 | 10.8 nM
8 | B8 | 1.09 nM
9 | B9 | 0.468 nM
10 | B10 | 4.62 nM
11 | B11 | 3.69 nM
12 | B12 | 16.8 nM
13 | B13 | 2.67 nM
14 | B14 | 1.25 nM
15 | B15 | 1.17 nM
16 | B16 | 0.386 nM
17 | B17 | 0.317 nM
18 | B18 | 556 nM
19 | B19 | 4.11 nM
20 | B20 | 100 nM
21 | B21 | 0.221 nM

Row | Binder | Kd
22 | B22 | 14.5 nM
23 | B23 | 0.588 nM
24 | B24 | 0.0889 nM
25 | B25 | 0.165 nM
26 | B26 | 1.85 nM
27 | B27 | 1.17 nM
28 | B28 | 4.02 nM
29 | B29 | 1.12 nM
30 | B30 | 2.87 nM
31 | B31 | 0.851 nM
32 | B32 | 0.872 nM
33 | B33 | 0.567 nM
34 | B34 | 1.34 nM
35 | B35 | 0.214 nM
36 | B36 | 0.0276 nM
37 | B37 | 0.613 nM
38 | B38 | 1.16 nM
39 | B39 | 2.45 nM
40 | B40 | 0.0945 nM
41 | B41 | 1.12 nM

Target: T2, mouse FAP on transiently transfected …
Assay: FACS, serial dilution of purified VHH on transfected HEK293T cells

Row | Binder | binding result
42 | B42 | binds
43 | B43 | binds
44 | B44 | binds
45 | B45 | binds
46 | B46 | binds
47 | B47 | binds
